Results from patent US20140072613A1, “Compositions and Methods for Treating Cutaneous Scarring” (priority 2012, published 2014).

How the values were obtained:
Assay in all cases: biochemical
Type in all cases: biochemical
266 human kinases [1] = biological target: T1, 266 human kinases (Homo sapiens, UniProt O00141); settings: SGK(h); 100 μM
T1 sequence (O00141 1-431): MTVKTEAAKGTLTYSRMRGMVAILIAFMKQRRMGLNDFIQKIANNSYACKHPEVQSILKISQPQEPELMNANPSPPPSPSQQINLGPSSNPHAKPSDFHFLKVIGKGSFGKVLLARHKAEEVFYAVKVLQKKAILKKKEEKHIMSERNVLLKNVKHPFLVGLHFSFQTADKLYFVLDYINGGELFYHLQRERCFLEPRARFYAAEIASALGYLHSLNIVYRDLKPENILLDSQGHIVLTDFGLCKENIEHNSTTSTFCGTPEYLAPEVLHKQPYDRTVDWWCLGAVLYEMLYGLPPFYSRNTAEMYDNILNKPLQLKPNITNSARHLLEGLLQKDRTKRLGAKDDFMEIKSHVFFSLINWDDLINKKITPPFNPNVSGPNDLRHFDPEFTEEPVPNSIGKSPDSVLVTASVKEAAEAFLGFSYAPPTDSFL
Method in brief: (§1)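 Kinase phosphorylates cationic substrate with radiolabelled ATP phosphate; substrate retained on anionic filter membrane; scintillation count; % of 100% activity control.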

266 human kinases [2] = biological target: 266 human kinases (Homo sapiens, UniProt P00519, Y253F); settings: Abl(Y253F)(h); 100 μM
Method in brief: as §1

266 human kinases [3] = biological target: 266 human kinases (Homo sapiens, UniProt P04629); settings: TrkA(h); 100 μM
266 human kinases (Homo sapiens, UniProt P04629), sequence (P04629 33-796): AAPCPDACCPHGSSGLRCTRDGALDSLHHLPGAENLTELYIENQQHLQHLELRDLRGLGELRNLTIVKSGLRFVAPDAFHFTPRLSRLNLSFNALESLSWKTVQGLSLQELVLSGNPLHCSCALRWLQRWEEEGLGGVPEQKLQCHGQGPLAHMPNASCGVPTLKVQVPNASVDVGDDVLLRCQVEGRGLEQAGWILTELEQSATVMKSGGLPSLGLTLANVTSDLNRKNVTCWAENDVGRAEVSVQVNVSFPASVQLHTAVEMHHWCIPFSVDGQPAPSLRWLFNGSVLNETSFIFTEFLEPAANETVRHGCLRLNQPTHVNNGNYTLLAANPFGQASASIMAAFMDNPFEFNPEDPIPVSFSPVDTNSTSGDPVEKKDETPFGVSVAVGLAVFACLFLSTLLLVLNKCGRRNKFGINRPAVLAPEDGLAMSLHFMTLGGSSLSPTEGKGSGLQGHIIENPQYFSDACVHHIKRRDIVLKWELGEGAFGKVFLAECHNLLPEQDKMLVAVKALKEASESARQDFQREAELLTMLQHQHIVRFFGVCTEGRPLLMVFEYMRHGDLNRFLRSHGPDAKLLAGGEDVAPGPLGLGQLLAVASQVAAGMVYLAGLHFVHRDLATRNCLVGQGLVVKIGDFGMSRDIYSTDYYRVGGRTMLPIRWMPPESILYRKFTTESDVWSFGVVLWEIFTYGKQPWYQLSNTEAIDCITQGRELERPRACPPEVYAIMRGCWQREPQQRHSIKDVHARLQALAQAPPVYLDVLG
Method in brief: as §1

266 human kinases [4] = biological target: 266 human kinases (Homo sapiens, UniProt P24941); settings: 100 μM
Method in brief: as §1

266 human kinases [5] = biological target: 266 human kinases (Homo sapiens, UniProt P36888, D835Y); settings: Flt3(D835Y)(h); 100 μM
Method in brief: as §1

266 human kinases [6] = biological target: T2, 266 human kinases (Homo sapiens, UniProt Q7L7X3); settings: TAO1(h); 100 μM
T2 sequence (Q7L7X3 1-1001): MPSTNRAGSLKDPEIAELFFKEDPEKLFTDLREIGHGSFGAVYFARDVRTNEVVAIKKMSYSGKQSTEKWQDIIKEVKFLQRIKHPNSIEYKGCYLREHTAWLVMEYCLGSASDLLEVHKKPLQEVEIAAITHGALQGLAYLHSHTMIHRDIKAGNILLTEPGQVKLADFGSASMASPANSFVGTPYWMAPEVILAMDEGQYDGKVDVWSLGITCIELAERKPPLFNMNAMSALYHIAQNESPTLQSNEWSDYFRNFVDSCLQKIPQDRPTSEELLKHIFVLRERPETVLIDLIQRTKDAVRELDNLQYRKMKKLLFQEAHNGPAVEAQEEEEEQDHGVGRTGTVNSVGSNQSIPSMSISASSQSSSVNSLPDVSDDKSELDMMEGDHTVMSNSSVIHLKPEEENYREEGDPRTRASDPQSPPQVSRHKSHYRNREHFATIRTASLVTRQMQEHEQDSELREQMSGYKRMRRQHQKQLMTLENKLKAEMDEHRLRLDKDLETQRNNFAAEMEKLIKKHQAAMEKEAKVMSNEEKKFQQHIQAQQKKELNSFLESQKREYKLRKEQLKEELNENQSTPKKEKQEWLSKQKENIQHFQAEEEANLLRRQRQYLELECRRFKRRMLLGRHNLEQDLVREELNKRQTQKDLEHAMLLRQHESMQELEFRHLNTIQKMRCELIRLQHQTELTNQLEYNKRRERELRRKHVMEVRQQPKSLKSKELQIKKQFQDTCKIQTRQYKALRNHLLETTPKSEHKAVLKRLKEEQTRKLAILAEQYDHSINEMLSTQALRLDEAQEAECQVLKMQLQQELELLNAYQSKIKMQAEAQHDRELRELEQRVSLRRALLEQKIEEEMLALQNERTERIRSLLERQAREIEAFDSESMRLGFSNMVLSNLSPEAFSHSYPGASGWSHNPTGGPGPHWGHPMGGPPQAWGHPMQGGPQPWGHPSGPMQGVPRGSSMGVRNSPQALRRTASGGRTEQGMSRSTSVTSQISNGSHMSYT
Method in brief: as §1

266 human kinases [7] = biological target: 266 human kinases (Homo sapiens, UniProt Q86Y07); settings: VRK2(h); 100 μM
266 human kinases (Homo sapiens, UniProt Q86Y07), sequence (Q86Y07 whole entry): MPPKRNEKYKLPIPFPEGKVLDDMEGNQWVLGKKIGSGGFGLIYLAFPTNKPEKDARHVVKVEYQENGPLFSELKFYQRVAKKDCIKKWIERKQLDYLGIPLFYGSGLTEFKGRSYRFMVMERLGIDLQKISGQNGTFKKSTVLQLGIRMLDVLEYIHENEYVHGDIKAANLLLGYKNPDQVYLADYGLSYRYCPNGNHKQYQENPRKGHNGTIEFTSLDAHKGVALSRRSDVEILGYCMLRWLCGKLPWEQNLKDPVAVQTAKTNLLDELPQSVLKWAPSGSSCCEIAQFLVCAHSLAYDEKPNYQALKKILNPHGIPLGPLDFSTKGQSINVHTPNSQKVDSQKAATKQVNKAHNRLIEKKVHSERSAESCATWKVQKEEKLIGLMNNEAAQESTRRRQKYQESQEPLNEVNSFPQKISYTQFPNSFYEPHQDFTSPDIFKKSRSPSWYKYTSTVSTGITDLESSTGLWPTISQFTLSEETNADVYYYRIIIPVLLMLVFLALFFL
Method in brief: as §1

266 human kinases [8] = biological target: 266 human kinases (Homo sapiens, UniProt Q9H4B4); settings: Plk3(h); 100 μM
266 human kinases (Homo sapiens, UniProt Q9H4B4), sequence (Q9H4B4 whole entry): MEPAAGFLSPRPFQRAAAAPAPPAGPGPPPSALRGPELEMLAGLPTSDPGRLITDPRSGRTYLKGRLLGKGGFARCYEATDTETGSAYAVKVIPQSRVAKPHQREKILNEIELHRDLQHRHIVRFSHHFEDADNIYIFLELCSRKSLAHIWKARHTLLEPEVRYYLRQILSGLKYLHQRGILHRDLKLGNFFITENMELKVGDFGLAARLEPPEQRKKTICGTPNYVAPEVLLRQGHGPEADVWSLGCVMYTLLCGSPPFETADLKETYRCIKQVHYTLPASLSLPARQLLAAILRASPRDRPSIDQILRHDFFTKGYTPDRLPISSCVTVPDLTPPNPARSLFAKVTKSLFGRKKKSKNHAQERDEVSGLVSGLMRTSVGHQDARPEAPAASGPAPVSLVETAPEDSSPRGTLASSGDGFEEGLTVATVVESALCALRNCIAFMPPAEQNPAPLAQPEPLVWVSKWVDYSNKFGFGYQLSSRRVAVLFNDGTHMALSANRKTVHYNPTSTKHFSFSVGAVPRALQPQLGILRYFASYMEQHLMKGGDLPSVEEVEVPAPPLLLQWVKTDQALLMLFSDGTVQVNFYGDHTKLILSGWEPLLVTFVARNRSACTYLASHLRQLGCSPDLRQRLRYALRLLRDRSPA
Method in brief: as §1

266 human kinases [9] = biological target: 266 human kinases (Homo sapiens, UniProt Q9HBH9); settings: Mnk2(h); 100 μM
266 human kinases (Homo sapiens, UniProt Q9HBH9), sequence (Q9HBH9 whole entry): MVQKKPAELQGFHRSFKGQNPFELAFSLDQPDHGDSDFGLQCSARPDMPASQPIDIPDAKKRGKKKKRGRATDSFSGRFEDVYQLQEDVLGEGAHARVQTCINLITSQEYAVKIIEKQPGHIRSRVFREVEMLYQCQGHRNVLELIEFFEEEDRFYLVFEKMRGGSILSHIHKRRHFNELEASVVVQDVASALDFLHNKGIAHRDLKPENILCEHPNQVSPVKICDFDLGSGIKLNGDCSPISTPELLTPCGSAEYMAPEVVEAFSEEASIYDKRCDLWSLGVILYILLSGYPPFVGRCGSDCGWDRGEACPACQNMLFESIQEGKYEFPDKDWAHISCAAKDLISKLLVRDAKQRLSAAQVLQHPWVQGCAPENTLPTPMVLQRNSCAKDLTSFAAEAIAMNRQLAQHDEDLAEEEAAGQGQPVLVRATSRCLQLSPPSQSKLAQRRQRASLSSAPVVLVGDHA
Method in brief: as §1

266 human kinases [10] = biological target: T3, 266 human kinases (Homo sapiens, UniProt Q9HBY8); settings: SGK2(h); 100 μM
T3 sequence (Q9HBY8 whole entry, looked up): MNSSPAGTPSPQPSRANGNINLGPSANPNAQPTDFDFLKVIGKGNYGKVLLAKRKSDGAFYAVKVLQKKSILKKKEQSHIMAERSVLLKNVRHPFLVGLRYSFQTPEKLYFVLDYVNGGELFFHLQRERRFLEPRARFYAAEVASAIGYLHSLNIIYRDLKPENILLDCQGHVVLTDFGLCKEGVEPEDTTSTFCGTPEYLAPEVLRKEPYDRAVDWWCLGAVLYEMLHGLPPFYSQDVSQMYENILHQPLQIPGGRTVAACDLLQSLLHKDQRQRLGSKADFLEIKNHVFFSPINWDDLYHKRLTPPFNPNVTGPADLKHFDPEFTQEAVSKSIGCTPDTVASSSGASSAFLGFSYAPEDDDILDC
Method in brief: as §1

266 human kinases [11] = biological target: 266 human kinases (Homo sapiens, UniProt O43318); settings: TAK1(h); 100 μM
266 human kinases (Homo sapiens, UniProt O43318), sequence (O43318 whole entry): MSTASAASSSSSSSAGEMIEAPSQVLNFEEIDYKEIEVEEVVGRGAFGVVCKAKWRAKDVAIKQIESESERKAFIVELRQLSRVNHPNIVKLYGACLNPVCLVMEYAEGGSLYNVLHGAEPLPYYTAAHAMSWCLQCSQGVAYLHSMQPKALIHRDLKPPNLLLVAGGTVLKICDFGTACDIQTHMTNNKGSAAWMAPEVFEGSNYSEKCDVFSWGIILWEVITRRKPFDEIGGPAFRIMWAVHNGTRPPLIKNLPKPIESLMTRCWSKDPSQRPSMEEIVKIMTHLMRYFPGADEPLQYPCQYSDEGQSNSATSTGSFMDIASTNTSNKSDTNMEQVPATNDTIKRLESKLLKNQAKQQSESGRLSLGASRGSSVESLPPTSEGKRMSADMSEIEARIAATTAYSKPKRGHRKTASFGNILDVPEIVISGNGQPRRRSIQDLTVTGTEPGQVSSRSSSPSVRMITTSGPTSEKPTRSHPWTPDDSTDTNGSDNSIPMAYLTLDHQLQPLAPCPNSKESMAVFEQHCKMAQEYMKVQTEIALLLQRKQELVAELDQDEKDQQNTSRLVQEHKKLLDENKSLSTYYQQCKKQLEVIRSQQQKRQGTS
Method in brief: as §1

Row | Sequence | % activity (266 human kinases [1]) | % activity (266 human kinases [2]) | % activity (266 human kinases [3]) | % activity (266 human kinases [4]; CDK2/cyclinA(h)) | % activity (266 human kinases [4]; CDK2/cyclinE(h)) | % activity (266 human kinases [5]) | % activity (266 human kinases [6]) | % activity (266 human kinases [7]) | % activity (266 human kinases [8]) | % activity (266 human kinases [9]) | % activity (266 human kinases [10]) | % activity (266 human kinases [11])
1 | HRRIKAWLKKIKALARQLGVAA (mammal) [MMI-0500] | 2% | 29% | 24% | 87% | 19% | 65% | 24% | 169% | 122% | 6% | −1% | –
2 | YARAAARQARAKALNRQLGVA (mammal) [MMI-0200] | – | – | – | – | – | – | – | – | – | – | – | 124%
